Here are results for three molecules from paper PMC6966814, “Receptor kinase FERONIA regulates flowering time in Arabidopsis”.

For series [1], the target named is T1, GST-CCA1 (… CLOCK-ASSOCIATED1) (Arabidopsis thaliana, UniProt P92973 1-608). Put plainly: competition (EMSA); 100x unlabeled competitor vs FITC-pFER; EMSA: 100 mM Tris-HCl pH 8.0, 5 mM DTT, 2.5 mM EDTA, 0.25% Triton X-100, 25% glycerin; competitor 15 min then probe 20 min; 4% native PAGE, 0.5x TBE; temperature not stated. As to conditions: protein: recombinant; label: none; blunt. Background: A gel shift assay detects complexes by their altered migration in electrophoresis.
T1 sequence (P92973 whole entry): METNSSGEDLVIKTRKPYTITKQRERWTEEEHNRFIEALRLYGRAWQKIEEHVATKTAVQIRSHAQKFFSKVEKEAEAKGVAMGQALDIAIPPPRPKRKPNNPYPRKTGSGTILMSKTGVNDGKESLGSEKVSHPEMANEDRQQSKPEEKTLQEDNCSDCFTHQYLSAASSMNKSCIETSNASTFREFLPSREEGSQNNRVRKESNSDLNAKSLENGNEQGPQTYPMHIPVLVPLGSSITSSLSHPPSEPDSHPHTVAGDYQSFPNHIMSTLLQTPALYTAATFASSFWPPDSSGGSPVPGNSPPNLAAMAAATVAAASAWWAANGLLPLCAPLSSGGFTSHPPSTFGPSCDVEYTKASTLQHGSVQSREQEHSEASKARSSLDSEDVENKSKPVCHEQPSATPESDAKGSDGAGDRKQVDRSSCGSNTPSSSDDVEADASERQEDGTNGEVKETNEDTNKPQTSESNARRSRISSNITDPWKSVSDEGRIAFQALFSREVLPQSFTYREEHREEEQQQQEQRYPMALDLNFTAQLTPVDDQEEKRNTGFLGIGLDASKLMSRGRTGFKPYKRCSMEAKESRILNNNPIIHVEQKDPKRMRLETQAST

The target in series [2] is T1, GST-CCA1 (… CLOCK-ASSOCIATED1). Kind of series: competition (EMSA); 100x unlabeled competitor vs FITC-pFER; did not compete; EMSA: 100 mM Tris-HCl pH 8.0, 5 mM DTT, 2.5 mM EDTA, 0.25% Triton X-100, 25% glycerin; competitor 15 min then probe 20 min; 4% native PAGE, 0.5x TBE; temperature not stated. Conditions: protein: recombinant; label: none; blunt.
Series [3] shares this target. Put plainly: EMSA; 20 fmol probe, 5 ug protein; EMSA: 100 mM Tris-HCl pH 8.0, 5 mM DTT, 2.5 mM EDTA, 0.25% Triton X-100, 25% glycerin; competitor 15 min then probe 20 min; 4% native PAGE, 0.5x TBE; temperature not stated. Conditions: protein: recombinant; label: FITC on strand 1 (S35; printed after its 3' end); blunt.

B1: pFER competitor A (unlabeled WT) (dsDNA)
DNA 1: TCTCCCCCAAAATATCTCTGTCTTC
DNA 2: GAAGACAGAGATATTTTGGGGGAGA
B1: the binding result in series [1] was “binds”.

B2: pFER-Mutant competitor B (AAATATCT to GGGGGGGG) (dsDNA)
DNA 1: TCTCCCCCAGGGGGGGGCTGTCTTC
DNA 2: GAAGACAGCCCCCCCCTGGGGGAGA
In the case of B2, the binding result in series [2] is “no binding”.

B3: pFER probe (EE element), FITC (dsDNA)
DNA 1: TCTCCCCCAAAATATCTCTGTCTTC
DNA 2: GAAGACAGAGATATTTTGGGGGAGA
As for B3, the binding result in series [3] is “binds”.
